Measurements reported in patent publication US20150344570A1 (published 2015).
Blank lines part the entries; values can stand above or below the binder they belong to.

Experiments:
FcgRIIIa F = biological target: T1, FcgRIIIa F (human, UniProt P08637 17-208); test: SPR (Biacore); KD of GpH7-Kn033/GpH7-Hl033/GpL16-k0 for this FcγR divided by KD of this antibody (reference itself)
T1 construct: extracellular domain; also called FcγRIIIa F; FcγRIIIaF

FcgRIIIa V = biological target: T2, FcgRIIIa V (human, UniProt P08637 17-208); test: as above
T2 construct: extracellular domain; also called FcγRIIIa V; FcγRIIIaV
T2 sequence (P08637 17-208 F176V limits assumed): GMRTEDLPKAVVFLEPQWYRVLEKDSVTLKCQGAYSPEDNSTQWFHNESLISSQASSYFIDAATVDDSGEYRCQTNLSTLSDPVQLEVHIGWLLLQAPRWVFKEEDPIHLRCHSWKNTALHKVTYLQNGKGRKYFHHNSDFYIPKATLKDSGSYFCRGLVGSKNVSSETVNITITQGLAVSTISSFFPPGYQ

FcgRIIa H = biological target: T3, FcgRIIa H (human, UniProt P12318 34-217); test: as above
T3 construct: extracellular domain; also called FcγRIIa H; FcγRIIa type H
T3 sequence (looked up): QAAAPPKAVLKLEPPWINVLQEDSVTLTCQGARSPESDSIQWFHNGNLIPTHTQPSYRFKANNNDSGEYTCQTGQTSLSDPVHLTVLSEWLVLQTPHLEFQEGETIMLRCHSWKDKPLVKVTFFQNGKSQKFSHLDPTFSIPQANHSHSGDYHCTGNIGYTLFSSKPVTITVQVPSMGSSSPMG

FcgRIa = biological target: T4, FcgRIa (human, UniProt P12314 16-292); test: as above
T4 construct: extracellular domain; also called FcγRIa; FcγRI
T4 sequence (P12314 16-292): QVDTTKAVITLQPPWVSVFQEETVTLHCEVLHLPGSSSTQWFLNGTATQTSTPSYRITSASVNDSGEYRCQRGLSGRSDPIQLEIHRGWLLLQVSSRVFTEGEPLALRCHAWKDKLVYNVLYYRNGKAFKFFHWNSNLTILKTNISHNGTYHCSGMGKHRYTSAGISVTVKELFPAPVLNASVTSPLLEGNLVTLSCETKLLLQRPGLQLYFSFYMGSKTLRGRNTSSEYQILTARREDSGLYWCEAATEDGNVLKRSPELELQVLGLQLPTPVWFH

FcgRIIb = biological target: T5, FcgRIIb (human, UniProt P31994 43-217); test: as above
T5 construct: extracellular domain; also called FcγRIIb; CD32B
T5 sequence (looked up): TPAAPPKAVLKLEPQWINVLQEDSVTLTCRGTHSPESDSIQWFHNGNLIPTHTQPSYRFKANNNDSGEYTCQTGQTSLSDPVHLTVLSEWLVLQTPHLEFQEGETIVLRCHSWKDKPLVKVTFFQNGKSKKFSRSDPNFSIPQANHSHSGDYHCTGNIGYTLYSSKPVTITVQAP

FcgRIIa R = biological target: T6, FcgRIIa R (human, UniProt P12318 34-217); test: as above
T6 construct: extracellular domain; also called FcγRIIa R; FcγRIIa type R
T6 sequence (looked up): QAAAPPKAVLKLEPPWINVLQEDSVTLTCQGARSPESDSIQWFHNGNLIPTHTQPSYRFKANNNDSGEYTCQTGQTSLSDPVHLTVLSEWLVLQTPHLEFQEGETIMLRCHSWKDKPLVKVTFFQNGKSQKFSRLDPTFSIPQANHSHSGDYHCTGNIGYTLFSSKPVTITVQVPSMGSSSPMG

FcγRIIIa V = FcγRIIIa V (human, UniProt P08637 17-208); test: SPR (Biacore), KD; the variant that showed the most enhancement
Sequence of FcγRIIIa V (P08637 17-208): as the sequence (P08637 17-208 F176V limits assumed) above, with V160F counted along it

FcγRIIa R = FcγRIIa R (human, UniProt P12318 34-217); test: SPR (Biacore), KD; showed the most enhancement
FcγRIIa H = FcγRIIa H (human, UniProt P12318 34-217); test: SPR (Biacore), KD; showed the most enhancement

T1 sequence (P08637 17-208): as the sequence (P08637 17-208 F176V limits assumed) above, with V160F counted along it

KD ratio (FcgRIIIa F): 1 fold | KD ratio (FcgRIIIa V): 1 fold | KD ratio (FcgRIIa H): 1 fold | KD ratio (FcgRIa): 1 fold | KD ratio (FcgRIIb): 1 fold | KD ratio (FcgRIIa R): 1 fold
B1: GpH7-Kn033/GpH7-Hl033/GpL16-k0 (antibody, human IgG1, kappa)
heavy 1: not shown
heavy 2: not shown
light: DIVMTQSPLSLPVTPGEPASISCQASESLVHSNRNTYLHWYLQKPGQSPQLLIYKVSNRFSGVPDRFSGSGSGTDFTLKISRVEAEDVGVYYCSQNTHVPPTFGQGTKVEIERTVAAPSVFIFPPSDEQLKSGTASVVCLLNNFYPREAKVQWKVDNALQSGNSQESVTEQDSKDSTYSLSSTLTLSKADYEKHKVYACEVTHQGLSSPVTKSFNRGEC
notes: Anti-glypican-3 antibody; knobs-into-holes alone applied to G1d (knob chain Y349C/T366W; hole chain D356C/T366S/L368A/Y407V); also called Kn033/Hl033

fold binding activity against H240-Kn033/H240-Hl033/L73-k0 (FcγRIIIa V): 107 fold
B2: H240-Kn203/H240-Hl210/L73-k0 (antibody, human IgG1, kappa)
heavy 1: QDQLVQSGAEVKKPGASVKVSCKASGFNIKDTYIQWVRQAPGQGLEWMGRIDPLRKQTKYREKFEGRVTITADTSTNTAYMELSSLRSEDTAVYYCVRSGREFDYWGQGTLVTVSSASTKGPSVFPLAPSSKSTSGGTAALGCLVKDYFPEPVTVSWNSGALTSGVHTFPAVLQSSGLYSLSSVVTVPSSSLGTQTYICNVNHKPSNTKVDKKVEPKSCDKTHTCPPCPAPEFYWGPMVFLFPPKPKDTLMISRTPEVTCVVVDVSDEDPEVKFNWYVDGVEVHNAKTKPREEQYNATYRVVSVLTVLHQDWLNGKEYKCKVSNKDLPAPIEKTISKAKGQPREPQVCTLPPSRDELTKNQVSLWCLVKGFYPSDIAVEWESNGQPENNYKTTPPVLDSDGSFFLYSKLTVDKSRWQQGNVFSCSVMHEALHNHYTQKSLSLSP
heavy 2: QDQLVQSGAEVKKPGASVKVSCKASGFNIKDTYIQWVRQAPGQGLEWMGRIDPLRKQTKYREKFEGRVTITADTSTNTAYMELSSLRSEDTAVYYCVRSGREFDYWGQGTLVTVSSASTKGPSVFPLAPSSKSTSGGTAALGCLVKDYFPEPVTVSWNSGALTSGVHTFPAVLQSSGLYSLSSVVTVPSSSLGTQTYICNVNHKPSNTKVDKKVEPKSCDKTHTCPPCPAPELLGGPSVFLFPPKPKDTLMISRTPEVTCVVVDVSHEEPEVKFNWYVDGVEVHNAKTKPREEQYNSTYRVVSVLTVLHQDWLNGKEYKCKVSNDALPAPIEETISKAKGQPREPQVYTLPPSRCELTKNQVSLSCAVKGFYPSDIAVEWESNGQPENNYKTTPPVLDSDGSFFLVSKLTVDKSRWQQGNVFSCSVMHEALHNHYTQKSLSLSP
light: DIQMTQSPSSLSASVGDRVTITCRASQDIHKYIAWYQQKPGQAPRLLIQYTSTLQPGVPSRFSGSGSGTDYTFTISSLQPEDIATYYCLQYEQLRTFGGGTKVEIKRTVAAPSVFIFPPSDEQLKSGTASVVCLLNNFYPREAKVQWKVDNALQSGNSQESVTEQDSKDSTYSLSSTLTLSKADYEKHKVYACEVTHQGLSSPVTKSFNRGEC
notes: 330 A in H240-Hl076

fold binding activity against H240-Kn033/H240-Hl033/L73-k0 (FcγRIIa R): 83 fold | fold binding activity against H240-Kn033/H240-Hl033/L73-k0 (FcγRIIa H): 33 fold
B3: H240-Kn231/H240-Hl068/L73-k0 (antibody, human IgG1, kappa)
heavy 1: QDQLVQSGAEVKKPGASVKVSCKASGFNIKDTYIQWVRQAPGQGLEWMGRIDPLRKQTKYREKFEGRVTITADTSTNTAYMELSSLRSEDTAVYYCVRSGREFDYWGQGTLVTVSSASTKGPSVFPLAPSSKSTSGGTAALGCLVKDYFPEPVTVSWNSGALTSGVHTFPAVLQSSGLYSLSSVVTVPSSSLGTQTYICNVNHKPSNTKVDKKVEPKSCDKTHTCPPCPAPEIYWGPIVFLFPPKPKDTLMISRTPEVTCVVVDVSDEDPEVKFNWYVDGVEVHNAKTKPREEQYNATYRVVSVLTVLHQDWLNGKEYKCKVSNKDLPAPIEKTISKAKGQPREPQVCTLPPSRDELTKNQVSLWCLVKGFYPSDIAVEWESNGQPENNYKTTPPVLDSDGSFFLYSKLTVDKSRWQQGNVFSCSVMHEALHNHYTQKSLSLSP
heavy 2: QDQLVQSGAEVKKPGASVKVSCKASGFNIKDTYIQWVRQAPGQGLEWMGRIDPLRKQTKYREKFEGRVTITADTSTNTAYMELSSLRSEDTAVYYCVRSGREFDYWGQGTLVTVSSASTKGPSVFPLAPSSKSTSGGTAALGCLVKDYFPEPVTVSWNSGALTSGVHTFPAVLQSSGLYSLSSVVTVPSSSLGTQTYICNVNHKPSNTKVDKKVEPKSCDKTHTCPPCPAPELLGGPSVFLFPPKPKDTLMISRTPEVTCVVVDVSHEEPEVKFNWYVDGVEVHNAKTKPREEQYNSTYRVVSVLTVLHQDWLNGKEYKCKVSNDALPKPIEETISKAKGQPREPQVYTLPPSRCELTKNQVSLSCAVKGFYPSDIAVEWESNGQPENNYKTTPPVLDSDGSFFLVSKLTVDKSRWQQGNVFSCSVMHEALHNHYTQKSLSLSP
light: DIQMTQSPSSLSASVGDRVTITCRASQDIHKYIAWYQQKPGQAPRLLIQYTSTLQPGVPSRFSGSGSGTDYTFTISSLQPEDIATYYCLQYEQLRTFGGGTKVEIKRTVAAPSVFIFPPSDEQLKSGTASVVCLLNNFYPREAKVQWKVDNALQSGNSQESVTEQDSKDSTYSLSSTLTLSKADYEKHKVYACEVTHQGLSSPVTKSFNRGEC
